What is called Kd is the equilibrium constant for the complex coming apart.

One assay addresses RAC2 (human), P15153. Description: stopped-flow fluorimetry; kon from kobs against increasing GDI concentrations mixed with 0.2 µM mdGDP-bound RHO GTPase; koff by displacement with excess unlabeled GDP-bound RHO protein; Kd = koff/kon; 25 °C, 30 mM Tris/HCl pH 7.5, 10 mM K2HPO4/KH2PO4 pH 7.5, 5 mM MgCl2, 3 mM DTT. As to conditions: remark: other sources report otherwise.
Another assay deals with RAC3 (human), P60763. The description is as above. As to conditions: remark: other sources report otherwise.

Where only a bound is given, the exact number is not on record here.

B1: GDI2, P52566 1-201 (natural protein)
chain: MTEKAPEPHVEEDDDDELDSKLNYKPPPQKSLKELQEMDKDDESLIKYKKTLLGDGPVVTDPKAPNVVVTRLTLVCESAPGPITMDLTGDLEALKKETIVLKEGSEYRVKIHFKVNRDIVSGLKYVQHTYRTGVKVDKATFMVGSYGPRPEEYEFLTPVEEAPKGMLARGTYHNKSFFTDDDKQDHLSWEWNLSIKKEWTE
For the molecule B1, the Kd in the assay with RAC2 (human), P15153 stood at 18.8 µM. In the assay with RAC3 (human), P60763, this molecule yielded a fold faster kon than GDI1 above 10 fold and a fold slower koff than GDI1 below 4 fold.

These data come from PMC8622166.
